Test [1] has as its target His6-tagged JAM-A (Bio-Connect Life Science), immobilized on NTA-Ni2+ surfaces or biosensors. Kind of test: single-virus AFM force spectroscopy, virion on tip, His6-JAM-A model surface.
Test [2] has the same target. Kind of test: AFM dynamic force spectroscopy, Bell-Evans fit, JAM-A model surface.
Test [3] deals with human JAM-A expressed on the surface of transduced Lec2 or CHO cells (Lec2-JAM-A, CHO-JAM-A) (human) (UniProt Q9Y624). Kind of test: FD-based AFM adhesion mapping on living Lec2-JAM-A cells.
The target is the same in test [4]. Kind of test: FD-based AFM on Lec2-JAM-A cells, before injection of 1 mM LSTa.
Test [5] has the same target. Kind of test: FD-based AFM on Lec2-JAM-A cells, before injection of 1 mM LNnT.
In test [6] the target is His6-tagged JAM-A (Bio-Connect Life Science), immobilized on NTA-Ni2+ surfaces or biosensors. Kind of test: AFM force spectroscopy on JAM-A model surface after injection of 1 mM Neu5Ac or LSTa.
Test [7] has as its target human JAM-A expressed on the surface of transduced Lec2 or CHO cells (Lec2-JAM-A, CHO-JAM-A) (human) (UniProt Q9Y624). As to the kind of experiment: FD-based AFM on Lec2-JAM-A cells, after injection of 1 mM Neu5Ac.
The target is the same in test [8]. As to the kind of experiment: FD-based AFM on Lec2-JAM-A cells, after injection of 1 mM LSTa.
Test [9] has the same target. As to the kind of experiment: FD-based AFM on Lec2-JAM-A cells, after injection of 1 mM LNnT.
Test [10] shares this target. As to the kind of experiment: FD-based AFM on Lec2-JAM-A cells, before injection of 1 mM Neu5Ac.
Test [11] shares this target. Kind of test: FD-based AFM on neuraminidase-treated Lec2-JAM-A cells after injection of Neu5Ac, against before injection.

human JAM-A expressed on the surface of transduced Lec2 or CHO cells (Lec2-JAM-A, CHO-JAM-A) (human), sequence (Q9Y624 28-299): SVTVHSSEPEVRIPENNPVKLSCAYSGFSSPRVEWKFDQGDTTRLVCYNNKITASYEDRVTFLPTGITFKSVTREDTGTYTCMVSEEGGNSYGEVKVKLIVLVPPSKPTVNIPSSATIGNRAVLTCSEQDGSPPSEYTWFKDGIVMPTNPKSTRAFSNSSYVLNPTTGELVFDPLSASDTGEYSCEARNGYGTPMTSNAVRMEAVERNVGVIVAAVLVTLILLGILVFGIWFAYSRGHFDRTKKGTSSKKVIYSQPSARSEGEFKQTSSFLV

With “T3SA+ reovirus virion (wild-type strain type 3 Dearing, T3D), binding through its outer-capsid attachment protein sigma-1 (σ1) (from UniProt P03528 1-455)”, the specific binding force in [1] fell in the range of 20 to 130 pN. Also, the off-rate constant (koff) in test [2] is 0.04 s⁻¹. This substance yielded a xu (distance to the transition state) in test [2] of 0.71 nm. The substance also registered a binding force (rupture force) in [3] of 50 to 400 pN. For the same substance, the density of adhesion events (binding frequency) in test [3] worked out at 3.5%. In addition, the binding frequency in test [4] was found to be 3.8%; in [5], 3.8%; in test [7], 4.9%; in test [8], 4.8%; in test [9], 3.9%; in [10], 3.9%. For the same substance, the overall binding force in [6] was below 400 pN. In [11], the increase in binding came out at 20%.
Consider “T3SA- reovirus virion (T3D derivative carrying a point mutation in sigma-1, T3D-σ1R202W) (from UniProt P03528 1-455)”, for which the specific binding force in test [1] lay within 20 to 130 pN. In [2], this substance gave a koff of 0.05 s⁻¹ and a xu (distance to the transition state) of 0.48 nm. The frequency of adhesion events (binding frequency) in [3] was found to be 4%.

One may read the koff as the first-order rate constant of dissociation. High values mean fast dissociation, low ones slow dissociation.
